Test results taken from paper PMC11001197, “The PII protein interacts with the Amt ammonium transport and modulates nitrate/nitrite assimilation in mycobacteria” (Frontiers in Microbiology, 2024).

Biological target: T1, M. tuberculosis AccA3, His tag fusion (α-subunit of the acyl-CoA carboxylases) (M. tuberculosis, UniProt P96890 1-600)
T1 construct: also called His-AccA3; AccA3-His6
Assay: pull-down
Details: both partners purified

T1 sequence (P96890 whole entry, the tested form may be a part): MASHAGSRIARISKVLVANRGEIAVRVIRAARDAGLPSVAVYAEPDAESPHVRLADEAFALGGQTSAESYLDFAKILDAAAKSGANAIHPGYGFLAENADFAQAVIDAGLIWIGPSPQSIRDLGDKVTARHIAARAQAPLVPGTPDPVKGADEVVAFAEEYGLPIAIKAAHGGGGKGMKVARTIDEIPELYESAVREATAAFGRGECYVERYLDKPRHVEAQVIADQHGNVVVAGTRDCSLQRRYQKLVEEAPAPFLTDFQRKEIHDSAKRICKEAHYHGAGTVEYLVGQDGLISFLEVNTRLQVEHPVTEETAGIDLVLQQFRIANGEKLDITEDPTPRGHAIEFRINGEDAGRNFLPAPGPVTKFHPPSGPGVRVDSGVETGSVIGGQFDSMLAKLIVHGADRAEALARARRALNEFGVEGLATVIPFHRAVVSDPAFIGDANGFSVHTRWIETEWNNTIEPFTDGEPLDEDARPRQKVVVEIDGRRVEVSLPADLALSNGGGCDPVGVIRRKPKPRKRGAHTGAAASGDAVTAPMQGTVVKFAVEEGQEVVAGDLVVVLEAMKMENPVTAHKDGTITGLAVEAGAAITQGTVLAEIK

B1: Azospirillum brasilense GlnB (PII protein), without tags (natural protein, A. brasilense, UniProt P21193 1-112, looked up)
chain: MKKIEAIIKPFKLDEVKEALHEVGIKGITVTEAKGFGRQKGHTELYRGAEYVVDFLPKVKIEVVMEDSLVERAIEAIQQAAHTGRIGDGKIFVTPVEEVVRIRTGEKGGDAI
notes: also called Ab-GlnB; PII (Ab); source: E. coli (plasmid pLH25PET, pET28a), obtained without tags according to Gerhardt et al. (2015, 2017)
Question: Does B1 bind?
Answer: Result: binds
